{"source": "paper PMC8267569", "about": "“Development of selective protease inhibitors via engineering of the bait region of human α2-macroglobulin” (The Journal of Biological Chemistry, 2021)", "target": "the molecule itself", "assay": "native gel or EMSA; pore-limited native PAGE of purified recombinant A2M; dimers that failed to tetramerize were removed during purification (Fig. S2)"}
{"protein": "tabula rasa A2M (bait region replaced by 13 Gly-Gly-Ser repeats) (natural protein, human, human alpha2-macroglobulin from its N-terminus to residue 689, the residue before the bait region (residues 690-728); tabula rasa bait region: 13 Gly-Gly-Ser repeats in place of the 39 residues 690-728, told in words; human alpha2-macroglobulin from residue 729, the residue after the bait region, to the C-terminus; Dimers removed during purification; also called A2M TR; A2M tabula rasa) SVSGKPQYMVLVPSLLHTETTEKGCVLLSYLNETVTVSASLESVRGNRSLFTDLEAENDVLHCVAFAVPKSSSNEEVMFLTVQVKGPTQEFKKRTTVMVKNEDSLVFVQTDKSIYKPGQTVKFRVVSMDENFHPLNELIPLVYIQDPKGNRIAQWQSFQLEGGLKQFSFPLSSEPFQGSYKVVVQKKSGGRTEHPFTVEEFVLPKFEVQVTVPKIITILEEEMNVSVCGLYTYGKPVPGHVTVSICRKYSDASDCHGEDSQAFCEKFSGQLNSHGCFYQQVKTKVFQLKRKEYEMKLHTEAQIQEEGTVVELTGRQSSEITRTITKLSFVKVDSHFRQGIPFFGQVRLVDGKGVPIPNKVIFIRGNEANYYSNATTDEHGLVQFSINTTNVMGTSLTVRVNYKDRSPCYGYQWVSEEHEEAHHTAYLVFSPSKSFVHLEPMSHELPCGHTQTVQAHYILNGGTLLGLKKLSFYYLIMAKGGIVRTGTHGLLVKQEDMKGHFSISIPVKSDIAPVARLLIYAVLPTGDVIGDSAKYDVENCLANKVDLSFSPSQSLPASHAHLRVTAAPQSVCALRAVDQSVLLMKPDAELSASSVYNLLPEKDLTGFPGPLNDQDNEDCINRHNVYINGITYTPVSSTNEKDMYSFLEDMGLKAFTNSKIRKPKMCGGSGGSGGSGGSGGSGGSGGSGGSGGSGGSGGSGGSGGSETVRKYFPETWIWDLVVVNSAGVAEVGVTVPDTITEWKAGAFCLSEDAGLGISSTASLRAFQPFFVELTMPYSVIRGEAFTLKATVLNYLPKCIRVSVQLEASPAFLAVPVEKEQAPHCICANGRQTVSWAVTPKSLGNVNFTVSAEALESQELCGTEVPSVPEHGRKDTVIKPLLVEPEGLEKETTFNSLLCPSGGEVSEELSLKLPPNVVEESARASVSVLGDILGSAMQNTQNLLQMPYGCGEQNMVLFAPNIYVLDYLNETQQLTPEIKSKAIGYLNTGYQRQLNYKHYDGSYSTFGERYGRNQGNTWLTAFVLKTFAQARAYIFIDEAHITQALIWLSQRQKDNGCFRSSGSLLNNAIKGGVEDEVTLSAYITIALLEIPLTVTHPVVRNALFCLESAWKTAQEGDHGSHVYTKALLAYAFALAGNQDKRKEVLKSLNEEAVKKDNSVHWERPQKPKAPVGHFYEPQAPSAEVEMTSYVLLAYLTAQPAPTSEDLTSATNIVKWITKQQNAQGGFSSTQDTVVALHALSKYGAATFTRTGKAAQVTIQSSGTFSSKFQVDNNNRLLLQQVSLPELPGEYSMKVTGEGCVYLQTSLKYNILPEKEEFPFALGVQTLPQTCDEPKAHTSFQISLSVSYTGSRSASNMAIVDVKMVSGFIPLKPTVKMLERSNHVSRTEVSSNHVLIYLDKVSNQTLSLFFTVLQDVPVRDLKPAIVKVYDYYETDEFAIAEYNAPCSKDLGNA", "values": [{"measurement": "stoichiometry N", "result": 4}]}
